# Molecular target: FKBP1A (UniProt P62942)
# Experiment: co-precipitation from transfected Jurkat cells
# Conditions: reference: WT TGFβRI; sites T200
substance,measurement,value
TGFβRI (from UniProt P36897) T200V TGFβRI,binding against the reference,stronger

# Source: article PMC3556779
